# Data taken from US6548266B1, “Assay for detecting the enzymatic activity of a phosphorylation enzyme using enhanced signal generation” (Kinetek Pharmaceuticals, Inc., priority 1999, dated 2003).
# How the values were obtained:
# PIM [1] = biological target: T1, PIM (Xenopus laevis, UniProt Q91822); test: Phosphorylation of peptide substrate in solution, spotted on phosphocellulose plate, scintillation counting; format: biochemical
# T1 construct: made in house; host or cells: bacterial culture
# Method: (§1) The phosphorylation assay mixture typically comprised:
# (§2) The phosphorylation of the polymer-conjugated substrate was carried out in a solution containing 5 μL (˜5 μg peptide) of the conjugated substrate, 10 μL of the indicated enzyme, 10 μL of ADB, and 5 μL of γ-^32P-ATP. After incubation at room temperature for 15 minutes, the reaction was stopped by spotting 10 μL of the sample solution on a phosphocellulose plate and washing with water, 1% phosphoric acid solution, water and ethanol. The radioactivity in each well was measured using a Trilux Microbeta 1450 liquid scintillation counter (Wallac).
# CDK1 = biological target: T2, CDK1 (Homo sapiens, UniProt P06493); test: as above; format: biochemical
# T2 construct: made in house; host or cells: bacterial culture
# Method: as §1, §2
# PAK = test: as above; format: biochemical
# Method: as §1, §2
# S6K = biological target: T3, S6K (Homo sapiens, UniProt P23443); test: as above; format: biochemical; settings: for Ratio: after/before conjugation; for Radioactivity (cpm) Before Conjugation: free peptide before conjugation to polymer; for Radioactivity (cpm) Before Conjugation / Radioactivity (cpm) After conjugation: 15 min room temperature; for Radioactivity (cpm) After conjugation: peptide after conjugation to polymer
# T3 construct: made in house
# Method: as §1, §2
# PIM [2] = biological target: T1, PIM; test: Phosphorylation of substrate immobilized on covalent, amine-binding plates; format: biochemical; settings: amine-binding plate
# Method: (§3) The polylysine-conjugated peptide substrate was diluted with a PBS buffer (pH 7.4) to a concentration of 0.1 mg/mL. Then 100 μL of the diluted solution was placed into each well of the covalent, amine-binding plate. The plate was incubated at room temperature for one hour and then washed with the PBS buffer three times and distilled water once. The substrate-immobilized plate was then phosphorylated as using standard assay conditions: 10 μL of the indicated enzyme, 15 μL of ADB and 5 μL of γ-^32P-ATP at room temperature for 15 minutes. After phosphorylation, the plate was rinsed sequentially with water, 1% phosphoric acid solution, water, and ethanol. The radioactivity in each well was determined using a Trilux Microbeta liquid scintillation counter. Two polylysine-conjugated substrates were immobilized on the covalent, amine-binding plates and phosphorylation of these immobilized polylysine-conjugated substrates was carried out. Both systems yielded reasonably high signals and the background signals on these plates were less than 500 cpm.
# (§4) Effect of pH. In the case of immobilization to covalent, amine-binding plates, the pH effect was investigated. The immobilization of a conjugated-substrate to an covalent, amine-binding plate was achieved by incubating 100 μL of PBS buffer solution containing 10 μg of the conjugated-substrate at room temperature for an hour. […]
# PKA = biological target: T4, PKA (Bos taurus, UniProt P00517); test: Phosphorylation of peptide substrate in solution, spotted on phosphocellulose plate, scintillation counting; format: biochemical, bovine
# T4 construct: PKA was isloated from bovine heart; from tissue; host or cells: bovine heart
# Method: CDK1, PAK and PIM were grown in bacterial culture at Kinetek Pharmaceuticals. PIM was isolated as described by Palaty et al. (1997) J Biol Chem 272:10514-10521. PKA was isloated from bovine heart. PKB was expressed in insect cells. S6K was isolated according to Grove et al. (1991) Mol Cell Bio 11:5541-5550. Kinase stock solutions were prepared at concentrations of 1-10 mg/mL in 150 mM Tris-Cl (pH 7.5) containing 5 mg/mL BSA and 100 mM MgCl2.
# as §1, §2
# ERK1 [3] = biological target: T5, ERK1 (Homo sapiens, UniProt P27361); test: as above; format: biochemical; settings: for Radioactivity (cpm), polymer effect on the phosphorylation of SEK1-CT by ERK1: SEK1-CT conjugated to the polymer named in the row; for Enhancing effect of polymeric carrier on the substrate activity: SEK1-CT conjugated to the polymer, result in words
# Method: as §1, §2
# ERK1 [4] = biological target: T5, ERK1; test: Phosphorylation of substrate immobilized on covalent, amine-binding plates; format: biochemical; settings: amine-binding plate
# Method: as §3, §4
# ERK1 [5] = biological target: T5, ERK1; test: One-plate assay (non-covalent, medium binding plate); format: biochemical
# Method: (§5) The one-plate assay was compared with the two-plate assay under the normal conditions employed by the high throughput screening robotic system: a mixture of 5 μL substrate (5 μg), 10 µL enzyme, 10 μL ADB and 5 μL γ-^32P ATP was incubated at room temperature for 20 minutes. In the one-plate assay, a non-covalent, medium binding plate was used.
# ERK1 [6] = biological target: T5, ERK1; test: Phosphorylation of SEK1-CT immobilized on covalent, amine-binding strips; format: biochemical; settings: conjugation simultaneous with phosphorylation, 15 min
# Method: Immobilization of SEK1-CT on covalent, amine-binding strips was also accomplished in a stepwise procedure: the polymer was immobilized on a covalent, amine-binding plate first (1 hour), then treated with SMCC (1 hour). Conjugation of SEK1-CT to the immobilized polylysine was achieved simultaneously with the phosphorylation by ERK1. The polymers used were polylysine of MW ˜35,000 and poly(lys, ala) 1:1 copolymer of MW ˜35,000. The assay mixture comprising 5 μL of SEK1-CT, 5 μL of ADB, 10 μL of ERK1 and 10 μL of γ-^32P-ATP was incubated at room temperature for 15 minutes. An aliquot (10 μL) was then spotted on a phosphocellulose plate to stop the reaction. The radioactivity on the plate was determined using a Trilux Microbeta liquid scintillation counter. The radioactivity remaining on the surface of the wells after the plate was washed with water and 1% phosphoric acid was determined using a Beckmann liquid scintillation counter. […] Also, the immobilization of polymer-conjugated SEK1-CT on the surfaces enhanced its phosphorylation. The radioactivity observed for the unconjugated SEK1-CT may result from non-specific binding of the amine groups on SEK1-CT to the plate. This non-specific binding could be eliminated by using polylysine as the blocking agent.
# ERK1 [7] = biological target: T5, ERK1; test: Two-plate assay; format: biochemical
# Method: as §5
# PKB [8] = biological target: T6, PKB (Homo sapiens, UniProt P31749); test: Phosphorylation of peptide substrate in solution, spotted on phosphocellulose plate, scintillation counting; format: biochemical
# T6 construct: made in house; host or cells: insect cells
# Method: as §1, §2
# PKB [9] = biological target: T6, PKB; test: One-plate assay (non-covalent, medium binding plate); format: biochemical
# Method: as §5
# PKB [10] = biological target: T6, PKB; test: Two-plate assay; format: biochemical
# Method: as §5
# [11] = free peptide before conjugation to polymer
# [12] = peptide after conjugation to polymer
# [13] = conjugated substrate, 20 minutes
# T6 sequence (P31749 whole entry, species assumed): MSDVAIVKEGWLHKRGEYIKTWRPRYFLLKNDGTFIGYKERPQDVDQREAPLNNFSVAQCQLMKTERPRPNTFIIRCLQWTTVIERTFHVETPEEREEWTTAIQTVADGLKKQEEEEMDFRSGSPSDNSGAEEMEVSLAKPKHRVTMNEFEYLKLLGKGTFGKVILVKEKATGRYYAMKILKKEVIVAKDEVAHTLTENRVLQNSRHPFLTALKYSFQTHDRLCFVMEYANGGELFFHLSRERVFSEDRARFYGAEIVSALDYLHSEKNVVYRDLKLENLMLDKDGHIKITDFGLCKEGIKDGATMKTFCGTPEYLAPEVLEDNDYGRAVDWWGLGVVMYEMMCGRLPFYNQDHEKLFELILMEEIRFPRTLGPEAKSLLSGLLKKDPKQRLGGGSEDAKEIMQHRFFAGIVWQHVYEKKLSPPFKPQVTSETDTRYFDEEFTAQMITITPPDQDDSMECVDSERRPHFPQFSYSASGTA
# T2 sequence (P06493 whole entry, species assumed): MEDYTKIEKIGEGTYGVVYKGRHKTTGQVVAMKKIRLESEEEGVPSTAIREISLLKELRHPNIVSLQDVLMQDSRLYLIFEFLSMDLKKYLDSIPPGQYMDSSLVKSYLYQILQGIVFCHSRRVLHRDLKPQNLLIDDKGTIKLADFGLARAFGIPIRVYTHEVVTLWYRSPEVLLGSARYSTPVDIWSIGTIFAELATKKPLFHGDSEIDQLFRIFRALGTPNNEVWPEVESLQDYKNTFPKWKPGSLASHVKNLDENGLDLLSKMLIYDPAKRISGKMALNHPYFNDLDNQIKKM
# T1 sequence (Q91822 whole entry): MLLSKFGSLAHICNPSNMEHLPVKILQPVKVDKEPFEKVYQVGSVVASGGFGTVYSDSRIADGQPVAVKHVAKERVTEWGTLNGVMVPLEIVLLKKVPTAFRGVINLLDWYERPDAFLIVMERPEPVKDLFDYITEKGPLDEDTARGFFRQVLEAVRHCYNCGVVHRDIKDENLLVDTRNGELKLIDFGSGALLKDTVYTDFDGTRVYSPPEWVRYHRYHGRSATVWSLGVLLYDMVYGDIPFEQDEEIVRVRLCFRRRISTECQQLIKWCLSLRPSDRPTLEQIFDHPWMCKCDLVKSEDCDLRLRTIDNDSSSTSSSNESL
# T3 sequence (P23443 whole entry): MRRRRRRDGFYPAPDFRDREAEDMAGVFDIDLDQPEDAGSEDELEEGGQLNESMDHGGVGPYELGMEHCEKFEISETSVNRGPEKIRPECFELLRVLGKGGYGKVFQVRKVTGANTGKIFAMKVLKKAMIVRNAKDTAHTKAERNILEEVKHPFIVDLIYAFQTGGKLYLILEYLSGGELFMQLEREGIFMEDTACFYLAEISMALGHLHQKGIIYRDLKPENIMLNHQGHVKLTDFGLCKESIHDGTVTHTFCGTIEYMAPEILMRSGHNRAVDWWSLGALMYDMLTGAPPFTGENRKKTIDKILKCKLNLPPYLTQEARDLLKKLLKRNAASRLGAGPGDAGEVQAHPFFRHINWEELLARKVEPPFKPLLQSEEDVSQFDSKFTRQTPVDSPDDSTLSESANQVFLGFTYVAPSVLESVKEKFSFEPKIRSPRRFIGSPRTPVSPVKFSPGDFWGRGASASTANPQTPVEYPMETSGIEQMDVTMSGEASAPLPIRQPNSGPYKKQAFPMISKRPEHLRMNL
# T5 sequence (P27361 whole entry, species assumed): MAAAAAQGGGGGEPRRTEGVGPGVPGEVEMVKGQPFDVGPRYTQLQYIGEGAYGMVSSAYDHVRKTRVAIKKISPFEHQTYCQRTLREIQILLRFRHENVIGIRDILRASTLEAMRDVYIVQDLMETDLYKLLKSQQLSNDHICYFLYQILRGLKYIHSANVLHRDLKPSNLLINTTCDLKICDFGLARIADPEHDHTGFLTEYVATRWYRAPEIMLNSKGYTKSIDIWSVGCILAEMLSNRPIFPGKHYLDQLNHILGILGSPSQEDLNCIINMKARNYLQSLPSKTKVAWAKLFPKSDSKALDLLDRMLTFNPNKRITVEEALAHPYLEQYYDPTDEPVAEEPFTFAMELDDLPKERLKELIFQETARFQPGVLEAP
substance,measurement,setting,value
CGRTGRRNSI [CAPK-sub],Ratio,PIM [1]; after/before conjugation,2.31
same,Radioactivity (cpm) Before Conjugation,PIM [1]; [11],18000 cpm
same,Radioactivity (cpm) After conjugation,PIM [1]; [12],41500 cpm
same,Ratio,CDK1; after/before conjugation,3.76
same,Radioactivity (cpm) Before Conjugation,CDK1; [11],12500 cpm
same,Radioactivity (cpm) After conjugation,CDK1; [12],47000 cpm
same,Ratio,PAK; after/before conjugation,2.14
same,Radioactivity (cpm) Before Conjugation,PAK; [11],31050 cpm
same,Radioactivity (cpm) After conjugation,PAK; [12],66510 cpm
same,Ratio,S6K,6.25
same,Radioactivity (cpm) Before Conjugation,S6K,10000 cpm
same,Radioactivity (cpm) After conjugation,S6K,62500 cpm
same,Radioactivity (cpm) Free substrate,PIM [2],≦300 cpm
same,Ratio,PKA; after/before conjugation,1.10
same,Radioactivity (cpm) Before Conjugation,PKA; [11],35680 cpm
same,Radioactivity (cpm) After conjugation,PKA; [12],39425 cpm
CKILDQMPATPSSPMYVD [SEK1-CT],Ratio,ERK1 [3]; after/before conjugation,48.28
same,Radioactivity (cpm) Before Conjugation,ERK1 [3]; [11],2390 cpm
same,Radioactivity (cpm) After conjugation,ERK1 [3]; [12],115400 cpm
same,Radioactivity (cpm) Free substrate,ERK1 [4],<500 cpm
same,S/N ratio SEK1-CT,ERK1 [5],117
same,Radioactivity (cpm) SEK1-CT/ERK1 Conj,ERK1 [5]; [13],41000 cpm
same,Radioactivity (cpm),ERK1 [6],7570 cpm
same,S/N ratio SEK1-CT,ERK1 [7],16
same,Radioactivity (cpm) SEK1-CT/ERK1 Free,"ERK1 [7]; free substrate, 20 minutes",2800 cpm
CKRPRAASFAE [PKB-sub],Ratio,PKB [8]; after/before conjugation,1.91
same,Radioactivity (cpm) Before Conjugation,PKB [8]; [11],54300 cpm
same,Radioactivity (cpm) After conjugation,PKB [8]; [12],103900 cpm
same,S/N ratio PKB-sub,PKB [9],81
same,Radioactivity (cpm) PKB-sub/PKB Conj,PKB [9]; [13],48300 cpm
same,S/N ratio PKB-sub,PKB [10],22
same,Radioactivity (cpm) PKB-sub/PKB Free,"PKB [10]; free substrate, 20 minutes",38000 cpm
CKRRRLASLR [S6K-sub],Ratio,S6K,2.82
same,Radioactivity (cpm) Before Conjugation,S6K,14000 cpm
same,Radioactivity (cpm) After conjugation,S6K,39450 cpm
Polyarginine,"Radioactivity (cpm), polymer effect on the phosphorylation of SEK1-CT by ERK1",ERK1 [3],91431 cpm
same,Enhancing effect of polymeric carrier on the substrate activity,ERK1 [3],certain enhancement
Polyhistidine,Enhancing effect of polymeric carrier on the substrate activity,ERK1 [3],marginal enhancing effect
Polylysine,"Radioactivity (cpm), polymer effect on the phosphorylation of SEK1-CT by ERK1",ERK1 [3],211234 cpm
same,Enhancing effect of polymeric carrier on the substrate activity,ERK1 [3],highest enhancing effect
